Tests used:
[1] = target: human CD33 extracellular region F21L (human) (UniProt P20138); assay: BLI Octet, IgG captured on AHC, CD33 analyte
[2] = target: human CD33 C212A (human) (UniProt P20138); assay: alanine scan, flow cytometry, HEK293-T
[3] = target: human CD33 C41A (human) (UniProt P20138); assay: alanine scan, flow cytometry
[4] = target: human CD33 V138A (human) (UniProt P20138); assay: flow cytometry on HEK293-T, alanine scan
[5] = target: human CD33 V231A (human) (UniProt P20138); assay: alanine scan, flow cytometry, HEK293-T
[6] = target: human CD33 variant Y49S (human) (UniProt P20138); assay: flow cytometry, IgG on cells expressing the mutant
[7] = target: human CD33 Y129A (human) (UniProt P20138); assay: flow cytometry on HEK293-T, alanine scan
[8] = target: human CD33 C101A (human) (UniProt P20138); assay: flow cytometry on HEK293-T, alanine scan
[9] = target: human CD33 M120A (human) (UniProt P20138); assay: flow cytometry on HEK293-T, alanine scan
[10] = target: human CD33 variant Y129S (human) (UniProt P20138); assay: flow cytometry, IgG on cells expressing the mutant
[11] = target: human CD33 F44A (human) (UniProt P20138); assay: alanine scan, flow cytometry
[12] = target: human CD33 K52F (human) (UniProt P20138); assay: flow cytometry, transfected cells, IgG
[13] = target: human CD33 L134R (human) (UniProt P20138); assay: flow cytometry, transfected cells, IgG
[14] = target: human CD33 Y129A (human) (UniProt P20138); assay: alanine scan, flow cytometry, HEK293-T
[15] = target: human CD33 L134A (human) (UniProt P20138); assay: alanine scan, flow cytometry, HEK293-T
[16] = target: human CD33 C212A (human) (UniProt P20138); assay: alanine scan, flow cytometry
[17] = target: human CD33 Q24A (human) (UniProt P20138); assay: flow cytometry, alanine scan
[18] = target: human CD33 V25A (human) (UniProt P20138); assay: flow cytometry, alanine scan
[19] = target: human CD33 Q26A (human) (UniProt P20138); assay: flow cytometry, alanine scan
[20] = target: human CD33 F44A (human) (UniProt P20138); assay: flow cytometry, alanine scan

Sequence of human CD33 F44A (human) (P20138 18-364 F44A limits assumed): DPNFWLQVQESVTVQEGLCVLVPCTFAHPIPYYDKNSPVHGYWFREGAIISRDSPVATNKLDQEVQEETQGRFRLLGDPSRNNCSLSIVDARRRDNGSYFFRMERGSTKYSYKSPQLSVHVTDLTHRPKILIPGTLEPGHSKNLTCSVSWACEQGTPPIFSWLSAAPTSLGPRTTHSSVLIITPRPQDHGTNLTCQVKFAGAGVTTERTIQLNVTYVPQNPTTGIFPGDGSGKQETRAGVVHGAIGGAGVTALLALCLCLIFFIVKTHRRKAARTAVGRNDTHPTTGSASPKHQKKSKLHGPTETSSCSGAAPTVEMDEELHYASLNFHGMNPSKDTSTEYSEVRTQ
Sequence of human CD33 Y129A (human) (P20138 18-364 Y129A limits assumed): as the sequence (P20138 18-364 F44A limits assumed) above, with A27F, Y112A counted along it
Sequence of human CD33 L134R (human) (P20138 18-364 L134R limits assumed): as the sequence (P20138 18-364 F44A limits assumed) above, with A27F, L117R counted along it
Sequence of human CD33 K52F (human) (P20138 18-364 K52F limits assumed): as the sequence (P20138 18-364 F44A limits assumed) above, with A27F, K35F counted along it
Sequence of human CD33 C212A (human) (P20138 18-364 C212A limits assumed): as the sequence (P20138 18-364 F44A limits assumed) above, with A27F, C195A counted along it
Sequence of human CD33 variant Y49S (human) (P20138 18-364 Y49S limits assumed): as the sequence (P20138 18-364 F44A limits assumed) above, with A27F, Y32S counted along it
Sequence of human CD33 C41A (human) (P20138 18-364 C41A limits assumed): as the sequence (P20138 18-364 F44A limits assumed) above, with C24A, A27F counted along it
Sequence of human CD33 variant Y129S (human) (P20138 18-364 Y129S limits assumed): as the sequence (P20138 18-364 F44A limits assumed) above, with A27F, Y112S counted along it
Sequence of human CD33 L134A (human) (P20138 18-364 L134A limits assumed): as the sequence (P20138 18-364 F44A limits assumed) above, with A27F, L117A counted along it
Sequence of human CD33 M120A (human) (P20138 18-364 M120A limits assumed): as the sequence (P20138 18-364 F44A limits assumed) above, with A27F, M103A counted along it
Sequence of human CD33 Q24A (human) (P20138 18-364 Q24A limits assumed): as the sequence (P20138 18-364 F44A limits assumed) above, with Q7A, A27F counted along it
Sequence of human CD33 V138A (human) (P20138 18-364 V138A limits assumed): as the sequence (P20138 18-364 F44A limits assumed) above, with A27F, V121A counted along it
Sequence of human CD33 V25A (human) (P20138 18-364 V25A limits assumed): as the sequence (P20138 18-364 F44A limits assumed) above, with V8A, A27F counted along it
Sequence of human CD33 Q26A (human) (P20138 18-364 Q26A limits assumed): as the sequence (P20138 18-364 F44A limits assumed) above, with Q9A, A27F counted along it
Sequence of human CD33 V231A (human) (P20138 18-364 V231A limits assumed): as the sequence (P20138 18-364 F44A limits assumed) above, with A27F, V214A counted along it
Sequence of human CD33 C101A (human) (P20138 18-364 C101A limits assumed): as the sequence (P20138 18-364 F44A limits assumed) above, with A27F, C84A counted along it
Sequence of human CD33 extracellular region F21L (human) (P20138 other isoform, or with tags, fused parts or gaps F21L F21L): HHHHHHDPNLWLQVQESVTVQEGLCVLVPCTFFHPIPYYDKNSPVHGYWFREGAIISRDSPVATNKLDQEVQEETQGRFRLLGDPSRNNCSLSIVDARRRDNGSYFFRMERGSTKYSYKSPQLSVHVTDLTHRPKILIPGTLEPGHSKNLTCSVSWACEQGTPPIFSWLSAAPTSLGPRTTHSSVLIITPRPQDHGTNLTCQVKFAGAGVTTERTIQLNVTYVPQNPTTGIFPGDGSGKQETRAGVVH

B1: Refmab #1 (antibody, human IgG1, V domains shown)
VH: EVQLVQSGAEVKKPGSSVKVSCKASGYTITDSNIHWVRQAPGQSLEWIGYIYPYNGGTDYNQKFKNRATLTVDNPTNTAYMELSSLRSEDTAFYYCVNGNPWLAYWGQGTLVTVSS
VL: DIQLTQSPSTLSASVGDRVTITCRASESLDNYGIRFLTWFQQKPGKAPKLLMYAASNQGSGVPSRFSGSGSGTEFTLTISSLQPDDFATYYCQQTKEVPWSFGQGTKVEVK
- % WT binding [1]: 1.52%
- Mean % WT Binding [2]: 17.2%
- Mean % WT Binding [3]: 14 % WT

B2: Refmab #4 (antibody, human IgG1, V domains shown)
VH: QVQLVQSGAEVKKPGESVKVSCKASGYTFTNYGMNWVKQAPGQGLEWMGWINTYTGEPTYADKFQGRVTMTTDTSTSTAYMEIRNLGGDDTAVYYCARWSWSDGYYVYFDYWGQGTSVTVSS
VL: DIVMTQSPDSLTVSLGERTTINCKSSQSVLDSSTNKNSLAWYQQKPGQPPKLLLSWASTRESGIPDRFSGSGSGTDFTLTIDSPQPEDSATYYCQQSAHFPITFGQGTRLEIK
- Mean % WT Binding [4]: 54.1 % WT binding
- Mean % WT Binding [5]: 79.3%
- Mean % WT Binding [6]: 9.8 % of WT

B3: Refmab #3 (antibody, human IgG1, V domains shown)
VH: QVQLVQSGAEVKKPGSSVKVSCKASGYTFTDYNMHWVRQAPGQGLEWIGYIYPYNGGTGYNQKFKSKATITADESTNTAYMELSSLRSEDTAVYYCARGRPAMDYWGQGTLVTVSS
VL: DIQMTQSPSSLSASVGDRVTITCRASESVDNYGISFMNWFQQKPGKAPKLLIYAASNQGSGVPSRFSGSGSGTDFTLTISSLQPDDFATYYCQQSKEVPWTFGQGTKVEIK
- Mean % WT Binding [7]: 15.6 % WT binding
- Mean % WT Binding [8]: 13.6 % WT binding
- Mean % WT Binding [9]: 15.7 % WT binding
- Mean % WT Binding [10]: 7.6 % of WT
- Mean % WT Binding [11]: 18.9 % WT

B4: Refmab #5 (antibody, human IgG1, V domains shown)
VH: QVQLVQSGAEVKKPGASVKVSCKASGYTFTNYDINWVRQAPGQGLEWIGWIYPGDGSTKYNEKFKAKATLTADTSTSTAYMELRSLRSDDTAVYYCASGYEDAMDYWGQGTTVTVSS
VL: DIQMTQSPSSLSASVGDRVTINCKASQDINSYLSWFQQKPGKAPKTLIYRANRLVDGVPSRFSGSGSGQDYTLTISSLQPEDFATYYCLQYDEFPLTFGGGTKVEIK
- Mean % WT Binding [12]: 2.5%
- Mean % WT Binding [13]: 5%

B5: Refmab #6 (antibody, human IgG1, V domains shown)
VH: QVQLQQPGAEVVKPGASVKMSCKASGYTFTSYYIHWIKQTPGQGLEWVGVIYPGNDDISYNQKFQGKATLTADKSSTTAYMQLSSLTSEDSAVYYCAREVRLRYFDVWGQGTTVTVSS
VL: EIVLTQSPGSLAVSPGERVTMSCKSSQSVFFSSSQKNYLAWYQQIPGQSPRLLIYWASTRESGVPDRFTGSGSGTDFTLTISSVQPEDLAIYYCHQYLSSRTFGQGTKLEIK
- Mean % WT Binding [14]: 76.7 % WT binding
- Mean % WT Binding [15]: 19.5 % WT binding
- Mean % WT Binding [12]: 2.5%
- Mean % WT Binding [13]: 1%
- Mean % WT Binding [16]: 16.2 % WT binding
- Mean % WT Binding [17]: 18.1 % of WT
- Mean % WT Binding [18]: 16.7 % of WT
- Mean % WT Binding [19]: 76.1 % of WT
- Mean % WT Binding [20]: 14 % of WT

Source: patent publication US20260242735A1
